B1: CsAGA1 (Cucumis sativus) (protein)
chain: MTVGAGITISDANLTVLGNRVLSDVHNNITLTAAPGGGVMNGAFIGVQSDQIGSRRVFPIGKLIGLRFLCAFRFKLWWMTQRMGCSGQEIPFETQFLVVETRDGSNIAGNGEEGDAVYTVFLPILEGDFRAVLQGNDNNELEICLESGDPSVDGFEGSHLVFVGAGSDPFETITYAVKSVEKHLQTFAHRERKKMPDILNWFGWCTWDAFYTDVTSDGVKKGLESFENGGIPPKFVIIDDGWQSVAKDAASTDCKADNTANFANRLTHIKENYKFQKDGKEGERIENPALGLQHIVSYMKEKHATKYVYVWHAITGYWGGVSSGVKEMEQYESKIAYPVASPGVESNEPCDALNSISKTGLGLVNPEKVFNFYNEQHSYLASAGVDGVKVDVQNILETLGAGHGGRVKLARKYHQALEASISRNFQDNGIISCMSHNTDGLYSSKRNAVIRASDDFWPRDPASHTIHIASVAYNSLFLGEFMQPDWDMFHSLHPMAEYHGAARAVGGCAIYVSDKPGQHDFNLLKKLVLHDGSILRAKLPGRPTKDCLFADPARDGKSLLKIWNMNDLSGVVGVFNCQGAGWCKVGKKNLIHDENPDTITGVIRAKDVSYLWKIAGESWTGDAVIFSHLAGEVVYLPQDASMPITLKSREFDVFTVVPVKELANDIKFAPIGLMKMFNSGGAVKEMNHQPGSSNVSLKVRGSGPFGAYSSSKPKRVAVDSEEVEFIYDEGGLITIDLKVPEKELYLWDIRIEL
notes: coding region in pAcHLT, baculovirus/Sf9 insect cells; 6xHis tag removed by thrombin
B2: CsAGA2 (Cucumis sativus) (protein)
chain: MTVTPKITVNDGNLVVHGKTILTGVPDNIVLTPGSGLGLVAGAFIGATASNSKSLHVFPVGVLEGTRFLCCFRFKLWWMTQRMGTSGRDIPFETQFLLMESQGNDGEDPDNSSTIYTVFLPLLEGQFRAALQGNEKNEMEICLESGDNTVETNQGLSLVYMHAGTNPFEVITQAVKAVEKHTQTFLHREKKKLPSFLDWFGWCTWDAFYTDVTAEGVVEGLQSLSDGGAPPKFLIIDDGWQQIEAKPKDADCVVQEGAQFASRLSGIKENHKFQKNGNNYDQVPGLKVVVDDAKKQHKVKFVYAWHALAGYWGGVKPASPGMEHYDSALAYPVQSPGMLGNQPDIVVDSLAVHGIGLVHPKKVFNFYNELHSYLASCGIDGVKVDVQNIIETLGAGHGGRVTLTRSYHQALEASIARNFSDNGCIACMCHNTDSLYSAKQTAVVRASDDYYPRDPASHTIHISSVAYNSLFLGEFMQPDWDMFHSLHPTAEYHGAARAIGGCAIYVSDKPGNHNFDLLKKLVLPDGSVLRAQLPGRPTRDSLFNDPARDGTSLLKIWNMNKCSGVVGVFNCQGAGWCRITKKTRIHDESPGTLTTSVRAADVDAISQVAGADWKGDTIVYAYRSGDLTRLPKGASVPVTLKVLEYDLFHISPLKDITSNISFAPIGLVDMFNIGGAVEQVDIQVVEPIPEFDGEVASELTCSLPDDRPPTATITMKARGCGRFGLYSSQRPLKCSVDKVGTDFVYDDVTGLVTFEIPIPTEEMYRWNIEIEV
notes: as for B1
B3: CsAGA3 (Cucumis sativus) (protein)
chain: MTIKPAVRISDGKLIVKDRTILTGVPDNVIATSGSSSGPVEGVFLGAVFEEEQSRQVVSLGTLRDVRFMACFRFKLWWMAQKMGDKGKEIPLETQFLLLETKDGSHLESDDGNEENQIIYTVFLPLIEGSFRACLQGNGQDELELCLESGDVDTKASSFTHSLFIHAGTDPFDAISDAMKAVKLHLNTFRLRHEKKFPAIVDYFGWCTWDAFYHEVTQDGVEAGLESLTAGGVPPKFVIIDDGWQSVGGDPQEEKEEGDEKQPKQPPLLRLTAIRENSKFQKKEDPTEGIKNIVNIAKNKYGLKYVYVWHAITGYWGGVRTGVKDMEEYGSSMQYPKVSKGVFENEPIWKNDALALQGLGLMNPKNVYKFYNELHSYLASAGIDGVKVDAQSILETLGAGLGGRVELTRQYHQALDASVARNFPDNGIIACMSHHTDAVYCAKQTAVVRASDDFYPRDPVSHTIHIAAVAYNTVFLGEIMVPDWDMFHSLHSAAEYHASARAISGGPVYVSDAPGKHNFELLRKLVLPDGSVLRATLPGRPTRDCLFSDPARDGVSLLKIWNLNKFTGVIGIYNCQGAAWNSQERKNTFHDTNSDAITGYVKGRDVHAISKVAADPDWNGDCAFYRHLSGDLVTLPYNSALPVSLKVLEFDIFTISPIKVLAPGFSFAPIGLIDMYNSGGAIEGLKYEVKGGAKLVEVDGASEGIETASERVENRSSELVAIVHLEVKGCGRFGAYSSAKPRQCIVDSSVVEFGYDSESGLLTLGIDKLPEGDLKYHDVKIEL
notes: as for B1

Tests used:
Conditions in all cases: pH and temperature of Km assay not stated
[1] = substrate: OC[C@H]1O[C@H](OC[C@H]2O[C@H](O[C@]3(CO)O[C@H](CO)[C@@H](O)[C@@H]3O)[C@H](O)[C@@H](O)[C@@H]2O)[C@H](O)[C@@H](O)[C@H]1O; experiment: Lineweaver-Burk plot, hydrolysis; assay type: biochemical, Cucumis sativus
[2] = substrate: OC[C@H]1O[C@H](OC[C@H]2O[C@H](OC[C@H]3O[C@H](O[C@]4(CO)O[C@H](CO)[C@@H](O)[C@@H]4O)[C@H](O)[C@@H](O)[C@@H]3O)[C@H](O)[C@@H](O)[C@H]2O)[C@H](O)[C@@H](O)[C@H]1O; experiment: Lineweaver-Burk plot, hydrolysis; assay type: biochemical, Cucumis sativus
purified protein = substrate: O=[N+]([O-])c1ccc(O[C@H]2O[C@H](CO)[C@H](O)[C@H](O)[C@H]2O)cc1; experiment: purified protein

Row | Protein | Km [1] | Km [2] | Km (purified protein)
1 | B1 | 2.08 ± 0.51 mM | 3.76 ± 0.89 mM | 1.81 ± 0.39 mM
2 | B2 | 30.4 ± 2.85 mM | 5.23 ± 1.23 mM | 2.21 ± 0.28 mM
3 | B3 | 22.47 ± 1.87 mM | 3.26 ± 0.76 mM | 1.24 ± 0.17 mM

From article PMC7802950, “Characteristics and expression patterns of six α-galactosidases in cucumber (Cucumis sativus L.)” (PLoS ONE, 2021)
